Results taken from paper PMC9927256, “Structural and Functional Characterization of Rv0792c from Mycobacterium tuberculosis: Identifying Small Molecule Inhibitor against HutC Protein” (Microbiology Spectrum, 2022).

Experiments:
Rv0792c = target: T1, Rv0792c (Mycobacterium tuberculosis, UniProt O86331); assay: […]; EMSA with Cy5-labeled native promoter; format: binding
T1 construct: His6-Rv0792c

[1] = target: T2, Rv0792c (HutC, GntR family) (Mycobacterium tuberculosis) (UniProt O86331); assay: ALISA (plate-immobilized protein)
T2 sequence (O86331 whole entry, looked up): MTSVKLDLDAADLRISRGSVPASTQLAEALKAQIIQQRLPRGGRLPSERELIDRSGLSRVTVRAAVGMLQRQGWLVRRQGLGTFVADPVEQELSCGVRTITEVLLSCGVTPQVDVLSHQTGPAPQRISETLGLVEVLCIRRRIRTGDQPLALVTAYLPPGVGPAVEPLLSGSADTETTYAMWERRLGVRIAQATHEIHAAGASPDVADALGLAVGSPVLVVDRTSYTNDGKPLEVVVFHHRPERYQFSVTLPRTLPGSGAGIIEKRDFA

[2] = target: T2, Rv0792c (HutC, GntR family) (Mycobacterium tuberculosis); assay: competitive ALISA
[3] = target: the molecule itself; assay: AUC; sedimentation velocity; Rv0792c at 0.38, 0.76 and 1.52 mg/mL in 25 mM HEPES pH 7.2, 400 mM NaCl, 10% glycerol; 40,000 rpm; absorbance at 280 nm; c(s) analysis with SedFit; S20,w

Molecule: COc1cc(/C=C(\C#N)C(=O)c2ccc(O)c(O)c2)cc(I)c1O [I-OMe-Tyrphostin, (2E)-2-(3,4-dihydroxybenzoyl)-3-(4-hydroxy-3-iodo-5-methoxyphenyl) acrylonitrile]
- IC50 (Rv0792c): ~109 nM

Molecule: TCTAGTCATTCGTCATAATCCCATCTGTTTCTTCCTCCTTCCGT [Rv0792c_2 aptamer (also Rv0729c_2)]
- Kd [1]: 51 nM
- IC50 [2]: 109 nM

B1: Rv0792c from Mycobacterium tuberculosis, wild type, with an amino-terminal histidine tag (natural protein)
chain: MTSVKLDLDAADLRISRGSVPASTQLAEALKAQIIQQRLPRGGRLPSERELIDRSGLSRVTVRAAVGMLQRQGWLVRRQGLGTFVADPVEQELSCGVRTITEVLLSCGVTPQVDVLSHQTGPAPQRISETLGLVEVLCIRRRIRTGDQPLALVTAYLPPGVGPAVEPLLSGSADTETTYAMWERRLGVRIAQATHEIHAAGASPDVADALGLAVGSPVLVVDRTSYTNDGKPLEVVVFHHRPERYQFSVTLPRTLPGSGAGIIEKRDFA
notes: also called His6-Rv0792c; (His)6-Rv0792c; not shown: His6, N-terminal, kept
- stoichiometry N [3]: 2
